Details: Bacillus amyloliquefaciens; pH 6.3; 25 °C; Urea; Fluorescence; MES 450 mM; reversible: yes; whole UniProt chain shown

B1: Ribonuclease wild type, P00648 (protein)
chain: MMKMEGIALKKRLSWISVCLLVLVSAAGMLFSTAAKTETSSHKAHTEAQVINTFDGVADYLQTYHKLPDNYITKSEAQALGWVASKGNLADVAPGKSIGGDIFSNREGKLPGKSGRTWREADINYTSGFRNSDRILYSSDWLIYKTTDHYQTFTKIR
denaturant m value: 1.92 kcal/mol/M
denaturant midpoint (higher = more stable): 4.6 M
unfolding free energy: 8.83 kcal/mol
